What was measured:
[1] = molecular target: T1, thyroid stimulating hormone receptor (full length human TSHR) (human, UniProt P16473 22-764); test: competitor ^125I-K1-70 IgG, TSHR coated tubes; 0.001 µg/mL in HBD
T1 construct: Full length TSHR coated onto plastic tubes (TSHR coated tubes, as in WO2004/050708A2); also called TSH receptor
Description: (§1) Binding inhibition assays were carried out using TSHR coated tubes as described in WO2004/050708A2. […] After aspiration, the tubes were washed and 100 μL of ¹²⁵I-labelled protein (5×10⁴ cpm) added and incubated for 1 hour at room temperature with shaking. The tubes were then aspirated, washed and counted in a gamma counter. Inhibition of labelled protein binding was calculated as 100×[1−(cpm bound in the presence of test material/cpm bound in the presence of control material)].

[2] = molecular target: T1, thyroid stimulating hormone receptor …; test: competitor ^125I-K1-70 IgG, TSHR coated tubes; 100 µg/mL in HBD
Description: as §1

[3] = molecular target: T1, thyroid stimulating hormone receptor …; test: competitor ^125I-K1-70 IgG, TSHR coated tubes; 0.03 µg/mL in assay buffer
Description: as §1

[4] = molecular target: T1, thyroid stimulating hormone receptor …; test: competitor ^125I-K1-70 IgG, TSHR coated tubes; 1 µg/mL in assay buffer
Description: as §1

[5] = molecular target: T1, thyroid stimulating hormone receptor …; test: competitor ^125I-K1-70 IgG, TSHR coated tubes; 0.001 µg/mL in assay buffer
Description: as §1

[6] = molecular target: T1, thyroid stimulating hormone receptor …; test: competitor ^125I-K1-70 IgG, TSHR coated tubes; 0.003 µg/mL in assay buffer
Description: as §1

[7] = molecular target: T1, thyroid stimulating hormone receptor …; test: competitor ^125I-K1-70 IgG, TSHR coated tubes; 0.1 µg/mL in HBD
Description: as §1

[8] = molecular target: T1, thyroid stimulating hormone receptor …; test: competitor ^125I-K1-70 IgG, TSHR coated tubes; 30 µg/mL in assay buffer
Description: as §1

[9] = molecular target: T1, thyroid stimulating hormone receptor …; test: competitor ^125I-K1-70 IgG, TSHR coated tubes; 0.01 µg/mL in HBD
Description: as §1

[10] = molecular target: T1, thyroid stimulating hormone receptor …; test: competitor ^125I-K1-70 IgG, TSHR coated tubes; 0.01 µg/mL in assay buffer
Description: as §1

[11] = molecular target: T1, thyroid stimulating hormone receptor …; test: competitor ^125I-K1-70 IgG, TSHR coated tubes; 30 µg/mL in HBD
Description: as §1

[12] = molecular target: T1, thyroid stimulating hormone receptor …; test: competitor ^125I-K1-70 IgG, TSHR coated tubes; 1 µg/mL in HBD
Description: as §1

[13] = molecular target: T1, thyroid stimulating hormone receptor …; test: competitor ^125I-K1-70 IgG, TSHR coated tubes; 10 µg/mL in assay buffer
Description: as §1

[14] = molecular target: T1, thyroid stimulating hormone receptor …; test: competitor ^125I-K1-70 IgG, TSHR coated tubes; 3 µg/mL in assay buffer
Description: as §1

[15] = molecular target: T1, thyroid stimulating hormone receptor …; test: competitor ^125I-K1-70 IgG, TSHR coated tubes; 100 µg/mL in assay buffer
Description: as §1

[16] = molecular target: T1, thyroid stimulating hormone receptor …; test: competitor ^125I-K1-70 IgG, TSHR coated tubes; 0.1 µg/mL in assay buffer
Description: as §1

[17] = molecular target: T1, thyroid stimulating hormone receptor …; test: competitor ^125I-K1-70 IgG, TSHR coated tubes; 0.3 µg/mL in HBD
Description: as §1

[18] = molecular target: T1, thyroid stimulating hormone receptor …; test: competitor ^125I-K1-70 IgG, TSHR coated tubes; 10 µg/mL in HBD
Description: as §1

[19] = molecular target: T1, thyroid stimulating hormone receptor …; test: competitor ^125I-K1-70 IgG, TSHR coated tubes; 3 µg/mL in HBD
Description: as §1

[20] = molecular target: T1, thyroid stimulating hormone receptor …; test: competitor ^125I-K1-70 IgG, TSHR coated tubes; 0.3 µg/mL in assay buffer
Description: as §1

[21] = molecular target: T1, thyroid stimulating hormone receptor …; test: competitor ^125I-K1-70 IgG, TSHR coated tubes; 0.03 µg/mL in HBD
Description: as §1

[22] = molecular target: T1, thyroid stimulating hormone receptor …; test: competitor ^125I-K1-70 IgG, TSHR coated tubes; 0.003 µg/mL in HBD
Description: as §1

Inhibition of binding (%) [1] [%]	Inhibition of binding (%) [2] [%]	Inhibition of binding (%) [3] [%]	Inhibition of binding (%) [4] [%]	Inhibition of binding (%) [5] [%]	Inhibition of binding (%) [6] [%]	Inhibition of binding (%) [7] [%]	Inhibition of binding (%) [8] [%]	Inhibition of binding (%) [9] [%]	Inhibition of binding (%) [10] [%]	Inhibition of binding (%) [11] [%]	Inhibition of binding (%) [12] [%]	Inhibition of binding (%) [13] [%]	Inhibition of binding (%) [14] [%]	Inhibition of binding (%) [15] [%]	Inhibition of binding (%) [16] [%]	Inhibition of binding (%) [17] [%]	Inhibition of binding (%) [18] [%]	Inhibition of binding (%) [19] [%]	Inhibition of binding (%) [20] [%]	Binder	further results
-3	93.5	53.9	89.6	7.2	17	48.6	91.2	3.1	30.2	92.2	85.8	91.8	90.5	92.9	77.9	73.9	92.5	91	86.4	K1-18 IgG (antibody, V domains shown, Human IgG1 kappa purified from hetero-hybridoma supernatant; it is not part of the secreted protein; also called human monoclonal TSHR autoantibody K1-18 (stimulating)) VH: EVQLVQSGAEVKKPGESLKISCKGSGYSFTNYWIGWVRQMPGKGLEWMGIIYPYDSDTRYSPSFEGQVTISADKSIRTAYLHWSSLKASDTAMYYCVRPRDGSYPYDAFDIWGQGTMVTVSS VL: EIVLTQSPGTLSLSPGERATLSCRASQSVSNNYLAWYQQKPGQAPRLLIYGASSRATGIPDRFSGSGSGTDFTLTISRLEPEDFAVYYCQHCGSSLRAFGQGTKVEIKR	Inhibition of binding (%) [21]: 20%; Inhibition of binding (%) [22]: -2.7%
0.5	83.6	31.3	78.5	13.8	15.2	38.4	83.3	1.1	23.7	83.2	75.6	81.9	79.4	86	62.8	60.9	82	80.5	71.4	K1-18 Fab (Fab, V domains shown) VH: EVQLVQSGAEVKKPGESLKISCKGSGYSFTNYWIGWVRQMPGKGLEWMGIIYPYDSDTRYSPSFEGQVTISADKSIRTAYLHWSSLKASDTAMYYCVRPRDGSYPYDAFDIWGQGTMVTVSS VL: EIVLTQSPGTLSLSPGERATLSCRASQSVSNNYLAWYQQKPGQAPRLLIYGASSRATGIPDRFSGSGSGTDFTLTISRLEPEDFAVYYCQHCGSSLRAFGQGTKVEIKR	Inhibition of binding (%) [21]: 10.2%; Inhibition of binding (%) [22]: -3.5%
-7.6	93.6	74.2	90.8	15.3	24	62.8	93.1	11.4	50.9	94.3	90.4	92.3	90.7	93.8	87.1	82.7	93.1	91.7	89.2	K1-70 IgG (antibody, V domains shown, Human IgG1 lambda purified from hetero-hybridoma supernatant) VH: EVQLVQSGAEVKKPGQSLKISCKASGYSLTDNWIGWVRQKPGKGLEWMGIIYPGDSDTRYSPSFQGQVTISADKSINTAYLQWSSLKASDTAIYYCVGLDWNYNPLRYWGPGTLVTVSS VL: QSVLTQPPSVSAAPGQKVTISCSGSSSDIGSNYVSWYQQFPGTAPKLLIYDNNKRPSAIPDRFSGSKSGTSATLGITGLQTGDEADYYCGTWDSRLGIAVFGGGTQLTVLG	Inhibition of binding (%) [21]: 33.6%; Inhibition of binding (%) [22]: 2.2%
-3.6	90.8	81.7	88.3	12.2	32.7	76.5	90.7	21.6	64.8	91	89.5	89.8	89.4	91.5	87.5	87.3	90.6	90.9	88	K1-70 Fab (Fab, V domains shown) VH: EVQLVQSGAEVKKPGQSLKISCKASGYSLTDNWIGWVRQKPGKGLEWMGIIYPGDSDTRYSPSFQGQVTISADKSINTAYLQWSSLKASDTAIYYCVGLDWNYNPLRYWGPGTLVTVSS VL: QSVLTQPPSVSAAPGQKVTISCSGSSSDIGSNYVSWYQQFPGTAPKLLIYDNNKRPSAIPDRFSGSKSGTSATLGITGLQTGDEADYYCGTWDSRLGIAVFGGGTQLTVLG	Inhibition of binding (%) [21]: 49.6%; Inhibition of binding (%) [22]: 5.6%

— patent US20110300138A1 (published 2011)
